Where a chain is given by its changes, count along the chain named.
T1: BCMA_B15x Ile22_Ala43 (human, UniProt Q02223)
T1 construct: limits given in the sample name
T1 yeast-displayed fusion (looked up): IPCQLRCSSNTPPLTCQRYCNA

T2: BCMA_B4x Arg27_Ala54 (human, UniProt Q02223)
T2 construct: limits given in the sample name
T2 yeast-displayed fusion (looked up): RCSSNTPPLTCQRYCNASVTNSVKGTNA

T3: BCMA_B21x Arg27_Tyr40 (human, UniProt Q02223)
T3 construct: limits given in the sample name
T3 yeast-displayed fusion (looked up): RCSSNTPPLTCQRY

T4: BCMA_B6x Met1_Ala43 (human, UniProt Q02223)
T4 construct: limits given in the sample name
T4 yeast-displayed fusion (looked up): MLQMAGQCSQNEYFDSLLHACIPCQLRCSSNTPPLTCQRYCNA

T5: BCMA_B14x Gly6_Pro23 (C21S) (human, UniProt Q02223)
T5 construct: limits and substitution as printed in the sample name
T5 yeast-displayed fusion (looked up): GQCSQNEYFDSLLHASIP

T6: BCMA_B20x Arg27_Ala43 (C41S) (human, UniProt Q02223)
T6 construct: limits and substitution as printed in the sample name
T6 yeast-displayed fusion (looked up): RCSSNTPPLTCQRYSNA

T7: BCMA_B10x Gly6_Ala43 (human, UniProt Q02223)
T7 construct: limits given in the sample name
T7 yeast-displayed fusion (looked up): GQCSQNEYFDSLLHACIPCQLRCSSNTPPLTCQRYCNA

T8: hBCMA fragment Gly6-Pro23 displayed on yeast (Aga2-HA-(hBCMA)-MYC) (human, UniProt Q02223 6-23)
T8 construct: range 6-23; not shown: Aga2-HA N-terminal fusion partner of the pPNL6 yeast display vector; C-terminal MYC tag
T8 chain (looked up): GQCSQNEYFDSLLHACIP

T9: BCMA_B2x Gly6_Ala54 (human, UniProt Q02223)
T9 construct: limits given in the sample name
T9 yeast-displayed fusion (looked up): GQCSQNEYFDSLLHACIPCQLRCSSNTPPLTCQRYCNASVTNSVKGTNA

T10: full-length hBCMA-ECD displayed on yeast (Aga2-HA-(hBCMA)-MYC) (human, UniProt Q02223 1-54)
T10 construct: range 1-54; stands here as the molecule on which the mapped regions are counted; also called hBCMA ecto-domain (ECD); not shown: Aga2-HA N-terminal fusion partner of the pPNL6 yeast display vector; C-terminal MYC tag
T10 sequence (looked up): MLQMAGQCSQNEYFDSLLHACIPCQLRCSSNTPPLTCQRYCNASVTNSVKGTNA

T11: BCMA_B16x Ile22_Ala43 (C41S) (human, UniProt Q02223)
T11 construct: limits and substitution as printed in the sample name
T11 yeast-displayed fusion (looked up): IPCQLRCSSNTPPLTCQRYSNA

T12: hBCMA fragment Gly6-Tyr40 displayed on yeast (Aga2-HA-(hBCMA)-MYC) (human, UniProt Q02223 6-40)
T12 construct: range 6-40; not shown: Aga2-HA N-terminal fusion partner of the pPNL6 yeast display vector; C-terminal MYC tag
T12 chain (looked up): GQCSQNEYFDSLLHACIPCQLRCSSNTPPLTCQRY

T13: BCMA_B22x Arg27_Tyr40 (C37S) (human, UniProt Q02223)
T13 construct: limits and substitution as printed in the sample name
T13 yeast-displayed fusion (looked up): RCSSNTPPLTSQRY

T14: BCMA_B8x Met1_Pro23 (human, UniProt Q02223)
T14 construct: limits given in the sample name
T14 yeast-displayed fusion (looked up): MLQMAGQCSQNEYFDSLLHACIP

T15: BCMA_B3x Ile22_Ala54 (human, UniProt Q02223)
T15 construct: limits given in the sample name
T15 yeast-displayed fusion (looked up): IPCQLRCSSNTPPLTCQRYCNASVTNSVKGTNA

T16: BCMA_B19x Arg27_Ala43 (human, UniProt Q02223)
T16 construct: limits given in the sample name
T16 yeast-displayed fusion (looked up): RCSSNTPPLTCQRYCNA

T17: BCMA_B17x Ile22_Tyr40 (human, UniProt Q02223)
T17 construct: limits given in the sample name
T17 yeast-displayed fusion (looked up): IPCQLRCSSNTPPLTCQRY

T18: BCMA_B7x Met1_Tyr40 (human, UniProt Q02223)
T18 construct: limits given in the sample name
T18 yeast-displayed fusion (looked up): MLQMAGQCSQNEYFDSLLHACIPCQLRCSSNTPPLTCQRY

B1: hBCMA-H2 (VHH)
VHH: QVKAEESGGGLVRPGDSLRLTCTISGRTSNNFVMAWFRRTPGKEREYVATRVWSGSTPYYHDSVKGRFTISIDDDKNTAYLQMNSLKPEDTAVYYCAATKDIMSRSYDYWGLGTQVTVSS
modifications: single biotin on the C-terminal AviTag
notes: also called VHH-H2; not shown: C-terminal His tag and AviTag biotinylation signal from pMRO vector
B2: hBCMA-H4 (VHH)
VHH: QVQLVESGGGLVQPGGSLRLSCAASGDSFGAYAMGWYRQAPGKQRELVAAISSAGNTFYRDSVKGRFTVSRNNAKNAMYLQMDRLKPEDTAVYQCNGAPWADEPVKVWNWGLGTQVTVSS
modifications: single biotin on the C-terminal AviTag
notes: also called VHH-H4; not shown: C-terminal His tag and AviTag biotinylation signal from pMRO vector
B3: hBCMA-VcMRo3 (V3) (VHH)
VHH: EVQLEQSGGGLVQTGDSLRLTCTIPGRASNHFVMAWFRRAPGKEREFVATRVWSGGSPYYSDSVKGRFAIAIDNAKNTAYLQMNSLKPEDTAVYYCAATKDIMSRSYDYWGLGTQVTVSS
modifications: single biotin on the C-terminal AviTag
notes: also called hBCMA-V3; not shown: C-terminal His tag and AviTag biotinylation signal from pMRO vector
B4: hBCMA-E7 (VHH)
VHH: B3 VHH with E1Q, E5V, Q6E, T21A, P25S, S29T, N30D, F47Y, S61L, S85N
modifications: single biotin on the C-terminal AviTag
notes: Llama VHH made in E. coli BL21(DE3), IMAC purified, monomeric SEC fraction used; also called VHH-E7; VHH # 1-B1; not shown: C-terminal His tag and AviTag biotinylation signal from pMRO vector
B5: hBCMA-VcMRo8(VF7/VF8) (VHH)
VHH: QVQLVESGGGLVQPGGSLRLSCAASGTIFSRNALAWFRQAPGKQRELVAHITIGGTTVYKDSVKGRFTISRDNAKNTVYLQMDALKPEDTAVYYCNADPEGSWNWVRRGDYWGQGTQVTVS
modifications: single biotin on the C-terminal AviTag
notes: also called V8; hBCMA-V8; not shown: C-terminal His tag and AviTag biotinylation signal from pMRO vector
B6: hBCMA-A6 (VHH)
VHH: QVQLVESGGGLVQPGGSLRLSCVASGSIFDAYNMGWYRQAPGKQRELVAAISSAGTTFYRDSVKGRFTVSRNNAKNTMYLQMDRLRPEDTAVYDCNGAPWGDAPVKVEDWGQGTQVTVSS
modifications: single biotin on the C-terminal AviTag
notes: also called VHH-A6; not shown: C-terminal His tag and AviTag biotinylation signal from pMRO vector

Biological target: T1, BCMA_B15x Ile22_Ala43
Assay: yeast cell ELISA, sample BCMA_B15x Ile22_Ala43
Protocol: (§1) The YSD vector (pPNL6) was from The Pacific Northwest National Laboratory, USA. […] The HRP activity was assayed with substrate TMB (tetramethyl benzidine) according to the manufacture's conditions and read at OD₄₅₀.
(§2) The assays were performed as described in the Materials and Method, and OD₄₅₀ was measured. Note that OD₄₅₀ reads equal or less than 0.100 were scored as zero for clarity.

binding result	Binder
no binding	B1
no binding	B2
no binding	B3
no binding	B4
no binding	B5
no binding	B6

Biological target: T2, BCMA_B4x Arg27_Ala54
Assay: yeast cell ELISA, sample BCMA_B4x Arg27_Ala54
Protocol: as §1, §2

binding result	Binder
no binding	B1
no binding	B2
no binding	B3
no binding	B4
no binding	B5
no binding	B6

Biological target: T3, BCMA_B21x Arg27_Tyr40
Assay: yeast cell ELISA, sample BCMA_B21x Arg27_Tyr40
Protocol: as §1, §2

binding result	Binder
no binding	B1
no binding	B2
no binding	B3
no binding	B4
no binding	B5
no binding	B6

Biological target: T4, BCMA_B6x Met1_Ala43
Assay: yeast cell ELISA, sample BCMA_B6x Met1_Ala43
Protocol: as §1, §2

OD450	Binder
2.41	B1
2.62	B2
2.65	B3
2.19	B4
2.33	B5
2.8	B6

Biological target: T5, BCMA_B14x Gly6_Pro23 (C21S)
Assay: yeast cell ELISA, sample BCMA_B14x Gly6_Pro23 (C21S)
Protocol: as §1, §2

binding result	Binder
no binding	B1
no binding	B2
no binding	B3
no binding	B4
no binding	B5
no binding	B6

Biological target: T6, BCMA_B20x Arg27_Ala43 (C41S)
Assay: yeast cell ELISA, sample BCMA_B20x Arg27_Ala43 (C41S)
Protocol: as §1, §2

binding result	Binder
no binding	B1
no binding	B2
no binding	B3
no binding	B4
no binding	B5
no binding	B6

Biological target: T7, BCMA_B10x Gly6_Ala43
Assay: yeast cell ELISA, sample BCMA_B10x Gly6_Ala43
Protocol: as §1, §2

OD450	Binder
2.6	B1
2.23	B2
2.69	B3
1.8	B4
2.32	B5
1.66	B6

Biological target: T8, hBCMA fragment Gly6-Pro23 displayed on …
Assay: yeast cell ELISA, sample BCMA_B12x Gly6_Pro23
Protocol: as §1, §2

OD450	binding result	Binder
2.82	–	B1
–	no binding	B2
2.08	–	B3
2.39	–	B4
–	no binding	B5
–	no binding	B6

Biological target: T9, BCMA_B2x Gly6_Ala54
Assay: yeast cell ELISA, sample BCMA_B2x Gly6_Ala54
Protocol: as §1, §2

OD450	Binder
2.92	B1
2.16	B2
2.53	B3
2.92	B4
2.74	B5
3.08	B6

biological target: T10, full-length hBCMA-ECD displayed on …; assay: yeast cell ELISA, sample BCMA_B1x Met1_Ala54
Protocol: as §1, §2

OD450	Binder
2.12	B1
2.78	B2
3.09	B3
2.52	B4
2.45	B5
1.88	B6

Biological target: T11, BCMA_B16x Ile22_Ala43 (C41S)
Assay: yeast cell ELISA, sample BCMA_B16x Ile22_Ala43 (C41S)
Protocol: as §1, §2

binding result	Binder
no binding	B1
no binding	B2
no binding	B3
no binding	B4
no binding	B5
no binding	B6

Biological target: T12, hBCMA fragment Gly6-Tyr40 displayed on …
Assay: yeast cell ELISA, sample BCMA_B11x Gly6_Tyr40
Protocol: as §1, §2

OD450	Binder
3.5	B1
2.42	B2
2.74	B3
3.57	B4
2.61	B5
2.44	B6

Biological target: T13, BCMA_B22x Arg27_Tyr40 (C37S)
Assay: yeast cell ELISA, sample BCMA_B22x Arg27_Tyr40 (C37S)
Protocol: as §1, §2

binding result	Binder
no binding	B1
no binding	B2
no binding	B3
no binding	B4
no binding	B5
no binding	B6

Biological target: T14, BCMA_B8x Met1_Pro23
Assay: yeast cell ELISA, sample BCMA_B8x Met1_Pro23
Protocol: as §1, §2

OD450	binding result	Binder
2.89	–	B1
–	no binding	B2
2.09	–	B3
2.45	–	B4
–	no binding	B5
–	no binding	B6

Biological target: T15, BCMA_B3x Ile22_Ala54
Assay: yeast cell ELISA, sample BCMA_B3x Ile22_Ala54
Protocol: as §1, §2

binding result	Binder
no binding	B1
no binding	B2
no binding	B3
no binding	B4
no binding	B5
no binding	B6

Biological target: T16, BCMA_B19x Arg27_Ala43
Assay: yeast cell ELISA, sample BCMA_B19x Arg27_Ala43
Protocol: as §1, §2

binding result	Binder
no binding	B1
no binding	B2
no binding	B3
no binding	B4
no binding	B5
no binding	B6

Biological target: T17, BCMA_B17x Ile22_Tyr40
Assay: yeast cell ELISA, sample BCMA_B17x Ile22_Tyr40
Protocol: as §1, §2

binding result	Binder
no binding	B1
no binding	B2
no binding	B3
no binding	B4
no binding	B5
no binding	B6

Biological target: T18, BCMA_B7x Met1_Tyr40
Assay: yeast cell ELISA, sample BCMA_B7x Met1_Tyr40
Protocol: as §1, §2

OD450	Binder
3.02	B1
1.39	B2
1.62	B3
2.64	B4
2.37	B5
1.84	B6
